The supplement of paper PMC10724198
± gives the standard deviation of the averaged measurements.

How the values were obtained:
Saccharomyces cerevisiae [1] = assay: protein stability index of tFT-peptide fusion (C-terminal peptide) (PSI (0-1 scale)); higher = more stable (slower turnover)
Experimental: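 MPS profiling in S. cerevisiae of the tFT-X12 degron library: putative degron peptides plus stable controls, 12 aa, fused to the C-terminus of a sfGFP-mCherry timer. Cells are FACS-sorted into 8 mCherry/sfGFP bins and deep-sequenced. PSI runs from 0 (unstable) to 1 (stable). Backgrounds are wild type, das1Δ and doa10Δ at 30 °C, and wild type, das1Δ, cdc34-1 and cdc53-1 at 37 °C; 2-3 technical replicates each.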

Saccharomyces cerevisiae [2] = assay: as above; conditions: genetic background: wild type; temperature: 30 C
[3] = genetic background: cdc34-1, temperature: 37 C
[4] = genetic background: cdc53-1, temperature: 37 C
[5] = genetic background: das1 deletion, temperature: 30 C
[6] = genetic background: das1 deletion, temperature: 37 C
[7] = genetic background: doa10 deletion, temperature: 30 C
[8] = genetic background: wild type, temperature: 30 C
[9] = genetic background: wild type, temperature: 37 C
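Also: PSI is a weighted mean of sequencing reads over stability bins, variants kept only with over 10 reads, mCherry proximal and sfGFP distal, peptide attached via GGGS linker.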

Sequence | protein stability index (Saccharomyces cerevisiae [1]; [3]) | protein stability index (Saccharomyces cerevisiae [1]; [4]) | protein stability index (Saccharomyces cerevisiae [1]; [5]) | protein stability index (Saccharomyces cerevisiae [1]; [6]) | protein stability index (Saccharomyces cerevisiae [1]; [7]) | protein stability index (Saccharomyces cerevisiae [1]; [8]) | protein stability index (Saccharomyces cerevisiae [1]; [9]) | protein stability index (Saccharomyces cerevisiae [2])
RVSVNDGRRDSV | 0.712 ± 0.046 | 0.723 ± 0.016 | 0.652 ± 0.039 | 0.73 ± 0.013 | 0.681 ± 0.011 | 0.664 ± 0.015 | 0.707 ± 0.022 | 0.557 ± 0.18
EFCITAFVSVLT | 0.452 ± 0.029 | 0.431 ± 0.017 | 0.324 ± 0.033 | 0.483 ± 0.017 | 0.287 ± 0.011 | 0.329 ± 0.025 | 0.462 ± 0.0064 | 0.435 ± 0.012
YNNKITRYRRDS | 0.654 ± 0.053 | 0.731 ± 0.034 | 0.661 ± 0.055 | 0.752 ± 0.0077 | 0.388 ± 0.012 | 0.375 ± 0.024 | 0.612 ± 0.0082 | 0.52 ± 0.082
PACFPPPSPFAP | 0.643 ± 0.056 | 0.741 ± 0.026 | 0.712 ± 0.015 | 0.7326 ± 0.0022 | 0.718 ± 0.019 | 0.696 ± 0.029 | 0.725 ± 0.022 | 0.44 ± 0.034
VNWGFLVLLFQL | 0.446 ± 0.017 | 0.513 ± 0.025 | 0.39 ± 0.035 | 0.561 ± 0.018 | 0.219 ± 0.029 | 0.25 ± 0.021 | 0.4111 ± 0.00064 | 0.324 ± 0.011
WWGIVIVGGLGC | 0.526 ± 0.0069 | 0.566 ± 0.019 | 0.423 ± 0.019 | 0.5691 ± 0.00075 | 0.384 ± 0.02 | 0.404 ± 0.011 | 0.564 ± 0.024 | 0.489 ± 0.051
NRLHYSPLYTIY | 0.641 ± 0.087 | 0.735 ± 0.033 | 0.653 ± 0.0076 | 0.753 ± 0.0065 | 0.111 ± 0.011 | 0.153 ± 0.015 | 0.256 ± 0.0026 | 0.239 ± 0.0099
FFVACCSFVFLL | 0.369 ± 0.024 | 0.436 ± 0.03 | 0.35 ± 0.022 | 0.478 ± 0.0052 | 0.197 ± 0.007 | 0.203 ± 0.022 | 0.316 ± 0.019 | 0.335 ± 0.066
VFCSRSLISVVS | 0.193 ± 0.03 | 0.243 ± 0.072 | 0.208 ± 0.041 | 0.355 ± 0.007 | 0.165 ± 0.014 | 0.192 ± 0.03 | 0.303 ± 0.011 | 0.313 ± 0.027
AHSFKCVGVAVR | 0.4628 ± 0.00085 | 0.504 ± 0.01 | 0.332 ± 0.024 | 0.5469 ± 0.0017 | 0.309 ± 0.004 | 0.347 ± 0.032 | 0.544 ± 0.0072 | 0.3246 ± 0.0014
RFTFSVVFCLSF | 0.465 ± 0.011 | 0.5 ± 0.018 | 0.432 ± 0.011 | 0.504 ± 0.023 | 0.451 ± 0.022 | 0.436 ± 0.026 | 0.47 ± 0.012 | 0.47 ± 0.038
PIFFFGRLLFFL | 0.545 ± 0.045 | 0.592 ± 0.022 | 0.467 ± 0.0098 | 0.5856 ± 0.0046 | 0.3094 ± 0.0008 | 0.314 ± 0.014 | 0.499 ± 0.074 | 0.369 ± 0.016
VGLRLSVIFVVI | 0.265 ± 0.019 | 0.2985 ± 0.0021 | 0.213 ± 0.033 | 0.428 ± 0.027 | 0.195 ± 0.0031 | 0.213 ± 0.027 | 0.391 ± 0.049 | 0.372 ± 0.038
LVFCFRSLFLCS | 0.57 ± 0.057 | 0.603 ± 0.0097 | 0.542 ± 0.012 | 0.6784 ± 0.0048 | 0.254 ± 0.014 | 0.243 ± 0.019 | 0.39121 ± 0.00016 | 0.34 ± 0.022
VWVISLCIGGGG | 0.297 ± 0.0044 | 0.369 ± 0.015 | 0.24 ± 0.028 | 0.405 ± 0.011 | 0.213 ± 0.025 | 0.225 ± 0.021 | 0.3796 ± 0.0035 | 0.312 ± 0.013
PLSRLLPLYFLL | 0.405 ± 0.015 | 0.547 ± 0.00061 | 0.548 ± 0.017 | 0.66444 ± 0.00057 | 0.0797 ± 0.0046 | 0.0647 ± 0.0097 | 0.0945 ± 0.018 | 0.0966 ± 0.0083
CKFLYMALLFFW | 0.278 ± 0.0085 | 0.364 ± 0.0087 | 0.263 ± 0.032 | 0.423 ± 0.025 | 0.313 ± 0.02 | 0.288 ± 0.025 | 0.392 ± 0.00069 | 0.299 ± 0.061
GVGTFRLCVLLV | 0.233 ± 0.004 | 0.2473 ± 0.0021 | 0.273 ± 0.029 | 0.3697 ± 0.0013 | 0.156 ± 0.022 | 0.138 ± 0.0077 | 0.128 ± 0.0081 | 0.197 ± 0.02
VVGITIMVFIIT | 0.138 ± 0.0028 | 0.195 ± 0.065 | 0.184 ± 0.045 | 0.312 ± 0.0043 | 0.15 ± 0.018 | 0.185 ± 0.027 | 0.326 ± 0.046 | 0.333 ± 0.069
VFLRFVLSFFLL | 0.542 ± 0.03 | 0.629 ± 0.023 | 0.526 ± 0.023 | 0.608 ± 0.0045 | 0.424 ± 0.02 | 0.418 ± 0.013 | 0.489 ± 0.0065 | 0.4516 ± 0.001

Sequence | protein stability index (Saccharomyces cerevisiae [1]; [3]) | protein stability index (Saccharomyces cerevisiae [1]; [4]) | protein stability index (Saccharomyces cerevisiae [1]; [5]) | protein stability index (Saccharomyces cerevisiae [1]; [6]) | protein stability index (Saccharomyces cerevisiae [1]; [7]) | protein stability index (Saccharomyces cerevisiae [1]; [8]) | protein stability index (Saccharomyces cerevisiae [1]; [9]) | protein stability index (Saccharomyces cerevisiae [2])
PLPHTPAPPPFP | 0.6774 ± 0.0011 | 0.728 ± 0.0098 | 0.6492 ± 0.0043 | 0.721 ± 0.036 | 0.674 ± 0.034 | 0.676 ± 0.033 | 0.6992 ± 0.0033 | 0.508 ± 0.043
YLSLPSSIFLCF | 0.501 ± 0.022 | 0.504 ± 0.0066 | 0.461 ± 0.018 | 0.59 ± 0.019 | 0.498 ± 0.024 | 0.38 ± 0.015 | 0.5422 ± 0.0047 | 0.422 ± 0.085
GAPIFSSFLLFC | 0.541 ± 0.054 | 0.652 ± 0.022 | 0.579 ± 0.032 | 0.667 ± 0.012 | 0.332 ± 0.028 | 0.31 ± 0.028 | 0.5425 ± 0.0023 | 0.412 ± 0.026
LVILRCAFPVYG | 0.469 ± 0.011 | 0.529 ± 0.0084 | 0.339 ± 0.03 | 0.538 ± 0.009 | 0.298 ± 0.014 | 0.332 ± 0.043 | 0.51345 ± 9.4e-05 | 0.3963 ± 0.00083
LGHSLVRFVYCF | 0.46 ± 0.023 | 0.498 ± 0.024 | 0.411 ± 0.025 | 0.538 ± 0.011 | 0.349 ± 0.0072 | 0.357 ± 0.029 | 0.468 ± 0.016 | 0.451 ± 0.0073
GFWLAFLWYRES | 0.386 ± 0.067 | 0.507 ± 0.021 | 0.34 ± 0.035 | 0.548 ± 0.016 | 0.222 ± 0.015 | 0.248 ± 0.036 | 0.433 ± 0.033 | 0.4406 ± 0.0022
GTLSSSLIKSCA | 0.602 ± 0.036 | 0.616 ± 0.017 | 0.488 ± 0.027 | 0.637 ± 0.013 | 0.481 ± 0.01 | 0.499 ± 0.029 | 0.614 ± 0.0095 | 0.52 ± 0.057
VRRSVGGWSKVG | 0.638 ± 0.011 | 0.724 ± 0.023 | 0.636 ± 0.029 | 0.7327 ± 0.0047 | 0.158 ± 0.023 | 0.194 ± 0.037 | 0.505 ± 0.013 | 0.339 ± 0.022
FVVFAFGVLPVK | 0.496 ± 0.005 | 0.5131 ± 0.0027 | 0.389 ± 0.028 | 0.552 ± 0.012 | 0.361 ± 0.019 | 0.388 ± 0.039 | 0.514 ± 0.0089 | 0.466 ± 0.011
LFSAFFPLLFLS | 0.291 ± 0.022 | 0.353 ± 0.0036 | 0.436 ± 0.044 | 0.572 ± 0.02 | 0.107 ± 0.014 | 0.0848 ± 0.0096 | 0.0875 ± 0.00095 | 0.112 ± 0.013
CCNVLFRVCLFL | 0.459 ± 0.0095 | 0.526 ± 0.059 | 0.405 ± 0.042 | 0.542 ± 0.022 | 0.277 ± 0.0045 | 0.304 ± 0.025 | 0.4334 ± 0.0041 | 0.353 ± 0.048
PFYAYHFSLSVY | 0.13 ± 0.006 | 0.164 ± 0.0048 | 0.103 ± 0.028 | 0.227 ± 0.015 | 0.0245 ± 0.0025 | 0.0234 ± 0.0066 | 0.0924 ± 0.0037 | 0.0344 ± 0.01
VVIGAVLFVVVR | 0.0736 ± 0.0063 | 0.21 ± 0.015 | 0.157 ± 0.028 | 0.291 ± 0.0065 | 0.12 ± 0.0087 | 0.134 ± 0.035 | 0.25 ± 0.005 | 0.29 ± 0.012
LGVGVVPEFFVV | 0.659 ± 0.028 | 0.729 ± 0.014 | 0.592 ± 0.022 | 0.723 ± 0.023 | 0.332 ± 0.022 | 0.374 ± 0.022 | 0.527 ± 0.0086 | 0.464 ± 0.0065
FCCSFFLCVCFV | 0.349 ± 0.036 | 0.371 ± 0.0043 | 0.309 ± 0.019 | 0.409 ± 0.007 | 0.29 ± 0.017 | 0.276 ± 0.034 | 0.348 ± 0.013 | 0.392 ± 0.0044
PWAQCVLLWVVV | 0.459 ± 0.043 | 0.495 ± 0.021 | 0.397 ± 0.032 | 0.5401 ± 0.0014 | 0.329 ± 0.015 | 0.359 ± 0.025 | 0.4776 ± 0.004 | 0.457 ± 0.0064
FRFFRPSFRFFC | 0.588 ± 0.015 | 0.713 ± 0.021 | 0.624 ± 0.0092 | 0.7518 ± 0.0026 | 0.107 ± 0.014 | 0.118 ± 0.0071 | 0.221 ± 0.033 | 0.2 ± 0.06
GLGFFMSFCFFL | 0.554 ± 0.015 | 0.579 ± 0.031 | 0.477 ± 0.06 | 0.567 ± 0.011 | 0.474 ± 0.0077 | 0.4562 ± 0.0037 | 0.55817 ± 0.00049 | 0.484 ± 0.036
PFLPFPPPLPAY | 0.4873 ± 0.0045 | 0.553 ± 0.015 | 0.394 ± 0.026 | 0.5646 ± 0.0038 | 0.362 ± 0.0056 | 0.408 ± 0.018 | 0.5079 ± 0.0042 | 0.0909 ± 0.028
